Results taken from paper PMC6961784.

Assays:
[1] = target: SNAPf-tagged EWS/FLI1 (human); assay: live-cell single-particle tracking
[2] = target: FUS LCD (UniProt P35637); assay: live-cell single-particle tracking
Chain of UniProt P35637 (P35637 2-214): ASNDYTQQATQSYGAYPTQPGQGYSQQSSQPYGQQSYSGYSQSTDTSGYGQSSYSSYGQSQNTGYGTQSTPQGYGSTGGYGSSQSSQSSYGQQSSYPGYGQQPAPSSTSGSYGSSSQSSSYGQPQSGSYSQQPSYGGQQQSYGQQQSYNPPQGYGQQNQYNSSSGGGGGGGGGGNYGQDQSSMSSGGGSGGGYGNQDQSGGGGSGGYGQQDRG

residence time (RT) [1]	residence time (RT) [2]	Substance
16 s		EWS LCD-Halo (domain or fragment)
7 s		EWS(YS) LCD-Halo (domain or fragment)
	< 1 s	Sp1 LCD (from UniProt P08047 1-785) (domain or fragment)
